Experimental data reported in patent US20090042248A1 (TARGETEX KFT, published 2009).

Target: T1, MASP-2 CCP1-CCP2-SP fragment (human, UniProt O00187 291-444; O00187 445-686)
T1 construct: range 291-444;range 445-686; also called MASP-2γB; MASP-2 catalytic fragment
Experiment: SDS-stable complex formation of 125I-labelled MASP fragment with C1-inhibitor; irreversible inhibition preceded by reversible complex formation, non-linear regression
Description: To assess the rate of SDS stable complex formation between the MASP-1 and MASP-2 CCP1-CCP2-SP fragments and C1-inhibitor, the ¹²⁵I-labelled MASP fragments at concentrations ranging between 30-100 nM were incubated with 100-350 nM C1-inhibitor at 37° C. in 20 mM HEPES, 140 mM NaCl, pH 7.4 for 40 minutes. Typically 11-13 samples were taken at varying time periods. […] The samples were further incubated at 37° C. for 30 minutes and run on reducing SDS-PAGE. Cleavages rates were visualized by means of autoradiography and the diminution of the reacted MASP chain was quantified using a GEL DOC 1000 instrument and Molecular Analyst Software for densitometric calculations (Bio-Rad, Hercules, Calif., USA). The kinetic constants were calculated assuming irreversible inhibition proceeded by reversible enzyme-inhibitor complex formation. Using steady-state approximation and neglecting the starting enzyme concentration compared to the starting inhibitor concentration ([I₀]>>[E₀]) the data was regressed on the following equation using non-linear regression methods: [E]=[E₀]exp(−kobst); kobs=k₂[I₀]/(Kᵢ+[I₀]), where kobs is the observed pseudo-first order rate of reaction, k₂ is the rate of irreversible enzyme-inhibitor complex formation and Kᵢ is the inhibitory constant.

T1 sequence (O00187 291-444 limits assumed, form in doubt, chain 1 of 2): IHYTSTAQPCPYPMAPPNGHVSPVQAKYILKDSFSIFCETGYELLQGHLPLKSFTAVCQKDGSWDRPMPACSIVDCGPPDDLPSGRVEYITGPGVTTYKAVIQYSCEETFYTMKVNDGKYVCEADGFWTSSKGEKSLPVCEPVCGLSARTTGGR
T1 sequence (O00187 445-686 limits assumed, form in doubt, chain 2 of 2): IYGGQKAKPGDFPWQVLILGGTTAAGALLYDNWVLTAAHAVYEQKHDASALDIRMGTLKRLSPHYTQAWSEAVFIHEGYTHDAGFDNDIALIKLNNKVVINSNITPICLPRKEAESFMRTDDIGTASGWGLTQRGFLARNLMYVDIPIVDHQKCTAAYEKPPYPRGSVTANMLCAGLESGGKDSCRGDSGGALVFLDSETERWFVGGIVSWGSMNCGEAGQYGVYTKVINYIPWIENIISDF

- Ki: 8.8 nM
B1: C1-inhibitor (other, human, UniProt P05155 23-500, looked up)
chain: NPNATSSSSQDPESLQDRGEGKVATTVISKMLFVEPILEVSSLPTTNSTTNSATKITANTTDEPTTQPTTEPTTQPTIQPTQPTTQLPTDSPTQPTTGSFCPGPVTLCSDLESHSTEAVLGDALVDFSLKLYHAFSAMKKVETNMAFSPFSIASLLTQVLLGAGENTKTNLESILSYPKDFTCVHQALKGFTTKGVTSVSQIFHSPDLAIRDTFVNASRTLYSSSPRVLSNNSDANLELINTWVAKNTNNKISRLLDSLPSDTRLVLLNAIYLSAKWKTTFDPKKTRMEPFHFKNSVIKVPMMNSKKYPVAHFIDQTLKAKVGQLQLSHNLSLVILVPQNLKHRLEDMEQALSPSVFKAIMEKLEMSKFQPTLLTLPRIKVTTSQDMLSIMEKLEFFDFSYDLNLCGLTEDPDLQVSAMQHQTVLELTETGVEAAAASAISVARTLLVFEVQQPFLFVLWDQQHKFPVFMGRVYDPRA
notes: mature; Serum-purified, glycosylated; molecular weight of 71.1 kDa used
